For series [1], the system named is CC[C@@]1([C@@H]2O[C@@H]([C@H]3O[C@@](O)(CO)[C@H](C)C[C@@H]3C)C[C@@H]2C)CC[C@H]([C@]2(C)CC[C@]3(C[C@H](O)[C@@H](C)[C@@H]([C@@H](C)[C@@H](OC)[C@H](C)C(=O)O)O3)O2)O1. Put plainly: purified protein, by the assay type. Particulars: other: ATPase, 0–300 μM, 30 min, 37°C.
Source text: The Gentest ATPase assay (Corning, Germany) was used to investigate the binding kinetics of the panel of P-gp substrates against membranes constituted to display human MDR1, mouse Mdr1a, mouse Mdr1b and mouse Bcrp. The assays measure the accumulation of inorganic phosphate (absorbance at 800 nm) produced in the breakdown of ATP to ADP. […] The assays were used in accordance with the manufacturer’s protocol to calculate (GraphPad Prism) the Michaelis-Menten parameters Km and VMAX. For the assay test compounds were serially diluted to produce an assay concentration range of 0–300 μM with the kinetics of ATP turnover examined over 30 min at 37°C.
Series [2] relates to CN1CCC[C@@H]1Cc1c[nH]c2ccc(CCS(=O)(=O)c3ccccc3)cc12. The series is described as follows: purified protein, by the assay type. Particulars: other: ATPase, 0–300 μM, 30 min, 37°C.

Sequence of mouse Mdr1a (Mus musculus) (chain, as listed by the source): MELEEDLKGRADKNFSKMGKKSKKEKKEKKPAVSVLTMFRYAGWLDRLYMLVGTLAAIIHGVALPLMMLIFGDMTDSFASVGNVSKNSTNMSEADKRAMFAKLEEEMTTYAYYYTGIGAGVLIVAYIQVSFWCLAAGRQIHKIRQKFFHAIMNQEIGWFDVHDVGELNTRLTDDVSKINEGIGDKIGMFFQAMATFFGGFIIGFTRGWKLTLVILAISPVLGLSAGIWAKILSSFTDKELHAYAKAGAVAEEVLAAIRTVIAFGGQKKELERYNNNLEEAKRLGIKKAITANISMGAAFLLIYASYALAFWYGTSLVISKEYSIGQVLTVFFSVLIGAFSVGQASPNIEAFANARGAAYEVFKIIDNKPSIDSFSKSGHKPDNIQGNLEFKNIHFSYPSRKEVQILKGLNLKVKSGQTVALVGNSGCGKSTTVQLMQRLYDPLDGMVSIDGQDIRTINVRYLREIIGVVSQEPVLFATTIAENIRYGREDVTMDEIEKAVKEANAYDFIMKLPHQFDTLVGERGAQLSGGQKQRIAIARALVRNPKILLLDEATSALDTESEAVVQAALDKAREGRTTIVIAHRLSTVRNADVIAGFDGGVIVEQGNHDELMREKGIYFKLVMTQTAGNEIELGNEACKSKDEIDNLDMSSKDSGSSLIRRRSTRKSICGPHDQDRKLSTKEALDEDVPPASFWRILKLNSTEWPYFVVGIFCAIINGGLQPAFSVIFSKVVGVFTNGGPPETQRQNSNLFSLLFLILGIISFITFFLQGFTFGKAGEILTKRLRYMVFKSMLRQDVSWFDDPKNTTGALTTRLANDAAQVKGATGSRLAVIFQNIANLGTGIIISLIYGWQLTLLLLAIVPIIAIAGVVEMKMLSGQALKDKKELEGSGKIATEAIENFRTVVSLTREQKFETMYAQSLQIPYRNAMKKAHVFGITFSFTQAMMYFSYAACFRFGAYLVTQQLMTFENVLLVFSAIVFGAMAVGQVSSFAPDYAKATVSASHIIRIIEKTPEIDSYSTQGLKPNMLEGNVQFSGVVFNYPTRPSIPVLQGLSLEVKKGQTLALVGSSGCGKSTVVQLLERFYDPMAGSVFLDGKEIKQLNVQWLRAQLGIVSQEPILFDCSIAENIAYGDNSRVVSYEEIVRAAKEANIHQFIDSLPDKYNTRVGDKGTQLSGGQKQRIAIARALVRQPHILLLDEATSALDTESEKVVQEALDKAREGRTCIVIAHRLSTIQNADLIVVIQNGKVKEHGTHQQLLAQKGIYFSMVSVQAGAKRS

As a reminder, the Km is the substrate concentration at which the rate is half of its maximum. Broadly, the Vmax is the rate approached at saturating substrate. As to mouse Mdr1a (Mus musculus), in series [1], the Km stood at 22.0 µM. In addition, in series [2], the Km was 45.6 µM and the Vmax was found to be 32.6 µM/min.
In the case of mouse Mdr1b (Mus musculus), the Michaelis-Menten constant (Km) in series [1] is 30.6 µM; in series [2], 58.1 µM. In addition, the maximal velocity (Vmax) in series [2] was determined as 76.1 µM/min.
Consider human MDR1 (Homo sapiens), for which, in series [1], the Km was 14.8 µM and the Vmax is listed as 15.6 µM/min. In series [2], the Km is on record as 91.5 µM and the Vmax worked out at 42.2 µM/min.
